{"source": "patent US6265535A", "about": "“Peptides and peptide analogues designed from binding sites of tumor necrosis factor receptor superfamily and their uses” (The Trustees of the University of Pennsylvania, priority 1997, dated 2001)", "key": {"L929 cells": {"test_system": "L929 cells", "assay": "Cytotoxicity assay: inhibition of TNF-α-induced cytolysis of L929 cells (MTT)", "type": "cell-based, murine", "details": "FIG. 7", "protocol": "FIG. 7. Inhibition of TNF-α-induced cytolysis of L929 cells by peptides derived from TNF-R. […] A murine fibroblast cell line, L929, was maintained in Dulbecco's modified Eagle's medium supplemented with 10% FCS, and the medium was replaced with serum free AIM-V medium (GIBCO BRL) immediately before the cells were used for the cytotoxicity assay. L929 cells were seeded at a density of 2×10^5 cells/ml in 96-well microtiter plates, and incubated for hr. at 37° C. under 5% CO2 in air. […] Immunol. Methods 119:203). Briefly, 10 μl of a 10 mg/ml solution of MTT were added to each well for 2 hr. at 37° C., and the color of the formazan product was developed by an overnight incubation at 37° C. with 100 μl of extraction buffer (20% SDS in 50% DMF, pH 4.7). The optical density of colored formazan was measured at 600 nm."}, "[1]": {"biological_target": "T1, TNF-α binding to TNF-R p55 expressed on U937 cells (Homo sapiens, UniProt P01375)", "T1 construct": "endogenous in cells; host or cells: U937 (human leukemia cell line)", "T1 sequence (P01375 77-233 limits assumed)": "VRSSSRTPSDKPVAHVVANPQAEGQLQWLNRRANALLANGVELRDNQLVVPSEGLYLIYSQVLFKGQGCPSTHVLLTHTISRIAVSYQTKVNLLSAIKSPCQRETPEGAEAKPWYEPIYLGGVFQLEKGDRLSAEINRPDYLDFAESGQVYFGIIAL", "assay": "Flow cytometry (FACS) of TNF-α binding to its cognate receptor on U937 cells, detected with anti-TNF-R antibody htr-9", "type": "cell-based", "details": "FIG. 6", "description": "FIG. 5. […] 1=U937 cells stained with fluorescein-conjugated secondary antibody. 2=U937 cells stained with an anti-TNF receptor antibody (htr-9) and secondary antibody. 3=U937 cells stained with anti-TNF-R antibody in the presence of TNF-α and secondary antibody.\nFIG. 6. […] The results represent the means from two independent experiments.\nA human leukemia cell line, U937, was maintained in RPMI-1640 medium supplemented with 10% FCS. In order to quantitate the binding of TNF-α to its cognate receptor expressed on U937 cells, 1×10^5 cells were re-suspended in PBS containing 0.5% BSA and 0.05% NaN3 (binding buffer). […] Then, 50 μl of an anti-TNF receptor antibody at 3 μg/ml in binding buffer were added to the cells for 1 hr. at 4° C. The cells were washed in binding buffer and stained with 50 μl (10 μg/ml) of fluorescein-conjugated goat ant-mouse IgG secondary antibody (GIBCO BRL, Gaithersburg, Md.) for 30 min. at 4° C. in the dark. Following washing in binding buffer, the cells were analyzed using FACScan flow cytometer (Becton Dickinson). The gates were set on the live cell population, and the degree of inhibition of TNF-α/cell binding by peptides was calculated on the basis of mean values of each histogram."}, "Human recombinant TNF-α [2]": {"biological_target": "T2, Human recombinant TNF-α (human, UniProt P01375)", "assay": "competitive radioreceptor assay, 125I-TNF-α on immobilized TNF-R-IgG"}, "Human recombinant TNF-α [3]": {"biological_target": "T2, Human recombinant TNF-α", "assay": "competitive radioreceptor assay, dose-response, 125I-TNF-α on immobilized TNF-R-IgG"}, "Human recombinant TNF-α [4]": {"biological_target": "T2, Human recombinant TNF-α", "assay": "flow cytometry on U937 cells, TNF-α preincubated with peptide, read out with htr-9"}}, "note": "Bridge positions count the residues as written; N and C are the ends. Ends that are not written are not given here."}
{"molecule": "CC(C)C[C@@H]1NC(=O)[C@H](Cc2ccc(O)cc2)NC(=O)[C@H](CCC(N)=O)NC(=O)[C@H](CO)NC(=O)[C@H](Cc2c[nH]c3ccccc23)NC(=O)[C@@H](NC(=O)[C@@H](N)Cc2ccc(O)cc2)CSSC[C@@H](C(=O)N[C@@H](Cc2ccc(O)cc2)C(=O)O)NC1=O", "note": "[WP9QY, YC WSQYL CY]", "values": [{"measurement": "cells protected against TNF-α-induced apoptosis/cytotoxicity", "setting": "L929 cells; peptide at 75 μM, TNF-α 50 pg/ml plus ACT-D 1 μg/ml", "result": "~90", "unit": "%"}]}
{"molecule": "YC ASENH CY (YCASENHCY; disulfide 2-8 (inferred)) [WP5JY, exocyclic peptide from TNF-R loop 1 of domain 2]", "values": [{"measurement": "inhibition of TNF-α binding to U937 cells in dose-response assay (in words)", "setting": "[1]", "result": "inhibited by each peptide in a dose-dependent manner"}]}
{"molecule": "YC WSQNL CY (YCWSQNLCY; disulfide 2-8 (inferred)) [WP9Q, exocyclic peptide from TNF-R loop 1 of domain 3, Gln instead of Glu]", "values": [{"measurement": "inhibition of TNF-α binding to U937 cells in dose-response assay (in words)", "setting": "[1]", "result": "inhibited by each peptide in a dose-dependent manner"}, {"measurement": "inhibition of TNF-α-induced cytotoxicity of L929 cells (in words)", "setting": "L929 cells", "result": "dose-dependent inhibitory activity"}, {"measurement": "inhibitory effect on TNF-α-induced cytotoxicity relative to WP9QY", "setting": "L929 cells", "result": "about half of the effects of WP9QY"}]}
{"molecule": "YCWSQNLCY (disulfide 2-8 (inferred))", "note": "[WP9Q]", "values": [{"measurement": "fold activity against the best WP5 peptides", "setting": "Human recombinant TNF-α [2]", "result": 2, "unit": "fold"}]}
{"molecule": "YCWSQYLCY (disulfide 2-8 (inferred))", "note": "[WP9QY]", "values": [{"measurement": "IC50", "setting": "Human recombinant TNF-α [3]", "result": 5, "unit": "µM"}, {"measurement": "IC50", "setting": "Human recombinant TNF-α [4]", "result": 75, "unit": "µM"}]}
